test: soluble fraction after stress (log2 fold change); higher = more stays soluble; pooled small domains, quantitative proteomics; details: stress: 50 degC
Outline: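 The stress applied to every library was 50°C. These custom libraries of small protein domains were pooled and measured at high throughput with quantitative proteomics as the read-out. Aggregation propensity is expressed as the base-two logarithm of the fold change in how much of each protein remains soluble. The higher the value, the more of that protein stays in solution.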

Sequence	soluble fraction (log2)
HMGEFVQLKNRTGSVIEAKILNYQNGKVKLQRKDGVIFVVPISIFDRMSSSIIENKAKEMDSF	0.00542
HMVMTTVPEVLGMDIRTAASMLTGKNLKYDYDLVESDKPKDEVIEQDQAKGTEVPEGTVVKLKVSKGPA	0.0583
HMIYYTEEELVKRYIDFSNYLGKKEGASDVDFKKYAVEFGIPSRDHYNRKFITLFNLKIKAGYKPIRH	-0.763
HMGTDFRPVFQYVDELVRAGEFTNLKGMIYFTDGRGIFPEKKPDYDAAFVFLDDGYDPPDVPVWAIKLVL	-0.161
HMKVTTGIDGLIGEEGVALSDFSGKGKIMVHGEIWNAEFSGEVKKGEVLLVEKANGMTLITRKKN	0.561
HMQILVEGVEANQRLDLFLRARLTEFSRSRIQGLVKNGNVLVNGNIARQAYLVQVGDKIELDVPEPVA	-0.487
HMGEKPTEITLSNAISVQELAEKLYVSETDIIRTLFLDGIIVNINQVLDLETAVKVGDQLGVTITIVE	-1.2
HMEPLVSKVFQVSYQKTADLVALIKSEDSKLLSARGTLISDERTSQIFVQDTPTRLERISMIVNGL	-0.883
HMNRQTGTVKWFNDAKGFGFITPESGPDLFVHFRSIQGAGFKSLQEGQRVTFVAVQGQKGMQADQVQA	-0.762
HMNAYEVLIPNIYIGQRVDQTLASLFPQFSRSRLQNWLARGNLLIDGEIIKPKTKVLGGEQIIILDT	-1.83
HMITALLPGTVLIREFDGRDYHVTVATDGRFEMDGHKYPSLSAVAKHITGTQWSGPAFFGLN	-1.75
HMTEYFTIESQEGERIDRYLSEELEDKSRSYIQKLIRDGHVLVDGKTVKAGYRLVAGDNIAITLPEI	-0.0879
HMKVTQDIIFKRNGEEIKSKVLEITPDLIIYIDYSRADNIAREINISEVNMIIYKNGTSEIFSRPEE	0.101
HMYESAMSDLHARIMSSDDPHGEIYKMLTQSGPEAKYIQDMYNETSIDRGLHPDDDFEDIIDAMVAELDD	-0.479
HMGGKAITGGEGEIIIRADKAETVAIYGIDGRLVHRVSTEAGDTKRVSVPAGIYIVKGAKVVV	≥ 0.62
HMKFHENLIALRRREGWSQEELGNRIGVTRQTVSKWELGLTTPELEKLVQLADVFGMTTDQLVGR	-0.146
HMSDGIPDLRNLNFLSPQEGDYLNESDRVFGVTINGDGQAYPLRIVNAHEMVNDTLGGEPISLM	0.16
HMGDTISVPAVRTLAYNKAMDILNAEGLKGIVADSVYDNHTAPGTVIEQNPKAGTIVKEGREVFLTIHA	0.103
HMAEVDREEALRIALAHAAVARRDVRNLKIERGEENGVPVYKVEFETAFGDFDVAVSRRSGDVVDAD	0.0689
HMVVPRSFKYEVLAHGGWAGNAQRYQTKEEALHAGLALSRRWTAVEDYRAVPSDDLPNQPAL	-0.259
HMDIHSEEYILGQNIRKYRLRLGWSQADLSNAVDIDRADISKYENGAKGIMSSTLLRKFAKALGVSMDALM	-2.76
HMTRPLVILEDVKFPSYNEIVSLTLPDGTRRGGQVLEVSGNKAIVQVFEGTSGIDVKDTHIELTKSS	0.0245
HMSINTIIAKNLNRLRNERNLSLGQLAELSGVSKVMLSQIEKGDSNPTVNTIWKIASGLNVPYTAILDQP	-0.0848
HMDAEELNSKAKDEFTWLEDDESETNLEYRKMVSSEDMAIVAKVAPALAAKLKYQLAHAATNMV	0.0207
HMTSHYTVLGVKETDTIEMIRTHYRKLILQFHPDKNQHLTEEERKKLEVKVLQIREAYEKIKKEK	-0.214
HMQDQVTLIVQVNGKLRGQISISTDATKELIEQTALANENVQKFVDGQSIKKIIIVPGRLVNIV	-1.12

Sequence	soluble fraction (log2)
HMETGNEDYRVGKELAYDGNYKAATIYLMKSIKDDPNNPDAFNMLGFSHRKLGNNDEAYIYYNKALEL	-0.387
HMSFMPDPSIHDAITYTVRSGDYLGKISTTFGVKVSDLQKWNSIKSNIIYPGQKLTVWVSSNKRESLQ	-1.31
HMAVSDAAEEYGKAGTPLVILAGKEYGSGSSRDWAAKGPYLQGVRAVLAESYERIHRSNLVGMGIVPLTYK	0.0654
HMLDLSEEEQKIVSILEKQGNLQINSLVVEADIPVHKINAILFELEMKGVVRVLALSLIHISEP	0.0725
HMEVKVSGHLEAIGGVYHMKLSWIDDAGKRRRKSKSTGLAERGNKKRANDMLIDFMREQEAEIAASGD	-1.02
HMALLSNTVDELHAGMRLDSYLFESGLYPSRSFAVKQIEAGKVFLNGDAVTKKTLVSNGDFIVYELEE	-0.778
HMPAAFALLTDREREIAALIAQRLTNREIAEKLYLSEGSVKQYVNQLYAKLGIEGDTRTKRRRLAEQAK	0.11
HMTELLTPKQRQVFELALREGYYDVPRRTSITEMARLLGVAKSTLSAQMHRMEATVMSTFAEEIRKQ	-1.74
HMLTKSELVFDTLKKRIIDGELEPGTELVISRISEEFNVSTIPVREAIKTLASEGLVEMEPHKSAKVAE	-0.0631
HMKQQFTREQIIELMYKAYKKHKKKLNRVEIKKEKALPSYVTIGRYLNETSIKKIWEIVLSEKE	-0.43
HMTPADEAGNDLDIGQTVKILRRVSEGQYEVSYRGTTWQARALNAQAAVEPSFAVIGGKEGNILLVHL	0.122
HMNVEQQNQARENIKRLMEEQGLSQPKLSEKAGIAFGTLSRILRGKQDLTIQTAEKIADALGLSVYDLAE	0.281
HMSVPRVWTDIQGRRVKGDFEGLRGDLVVLRVGGKSYAFPLVRLIASDQAYARSLVAGNPSK	-0.499
HMNDRLFQILYLLLEKGTMTAPELSRALEVSVRTIYRDIDALSLAGVPVYATQGKNGGVSLLPNY	-1.24
HMGYGEQEQEAQKYLALHALMSQDPTLAKMYQAPNQYKLMSHVMEQNGIKNVNDYLTDPQQLP	-0.00068
HMIDEQDLKKYILISTSVEELTDYLGATDRMLYDYLYSLKHVGQYWQLNERFLLDLYKLPNLVIVDKEDLE	-0.136
HMAFDGIVLKNITNALKELINGKINKIQQSSKDNLTLSIYNQKSYNLYIDISANNYRVNLTTHSE	0.103
HMNRTKQIYNELLFRLDQGVYPPESKFPSESQLADEFSVSKVTMNKIVSMLASSGRLSRGVRGAGTFVSSP	-0.775
HMADPAVLIAELFRAMPEKRFSVKNLISATGAETREQKDYVREVVHSLSREGMIEQVAEGKYRLSASE	0.171
HMEPDDLTVIKGIGPVAAKDLNEQGIITFAQLAKLSDKDVAKIDEHMPFSADQIKDWREQAKELAK	0.263
HMPQLVGDVDGDGRVSVTDGEWIRASYGALPWYAGWRAAADLDGSRKIDVVDLELLRTKMGN	-0.191
HMNGDYFEYRYAVNGSRSTPPSLSKTSRNPSGWSTTVPTVGNLQYLWFTVAKINGETNSLIQNWSTPARQT	-0.13
HMLQGKVSFFNDEKGYGFIKDNNSKDSYFVHINKVEGEIAEGDKVTFELEKGPKGLVAANVKR	0.184
HMQNYNLTQQEKKVLQLLVSGKSYKMIAAELNVAFDTVKSHITNIYSKLHVHSGTEAVSVAIRDKI	-0.444
HMSKQQVRSILDDIPNIGETRRKALMRQFQSLEKIREASVGQLREVDGMNEKAAQSVYQFFHK	-0.0486
HMVLFDLSEREKEVLKLLADGNSYKMIASRLEITYFTVNAHLKKIYEKLQVHSASEAVSVALRNSL	-1.15

Sequence	soluble fraction (log2)
HMHLKDEHGLTPKQRAFADEYVITLNATVSYKKIYSVKRDSVASTNGSRLLGNANVKAYIDKRLEE	-2.19
HMLIVLKPNVSQEEIDHIVDKIRSLSLEPHVSTGVQRTIITVIGDEDVIREQPLEALAGVESVKSILKP	-0.0145
HMNRYPIQTEVHAFNDDIIKEAINFEMSRGGQIFFVNNRIPQLYELENTIHRLVPDARVVIGHGQMP	-0.188
HMEPDEIVLDHRKRIENSDAIVLIAPIWNFRMPAILEGWIDKVLAPPWAFKFKKLFGNYGYPVGNLKG	0.103
HMKIAEALNLRGDADSYERQEAIWLLEHIVGMSALELKYRGEQDLTEDQLQQYRSGLQRLEQGEPLAYVIG	-0.396
HMTVEVFQSLVQTFREMSPRKAASILEELKRDLAVEILLHMPEDGVAAILARMDPARAARLTEQLALEKD	-0.979
HMSVTYRLLITSSPGQAEVFLDGKRVGITPFSARLAAGWYQVRVSKEGYNLWEQHVQLREDQRLTATLT	-0.471
HMYINVQNARTIASFRSSLWRMHRDFTNQGYITADGLKTFLEMGKLYEDAGGNDIYHSKLLPEITALEIKY	-0.76
HMRIVQTDYRNFLSQVESGAVRSVQIDETQIRYTALDSGGKEIVYNTGKVDDPGLVNRLYDAGVEFSQVIP	0.0657
HMIYQNVINLLKNRLNSSIYNIGDLLPSEKELAEHYDVSRNTLRKALKTLEEEGMIERRHGSGTYLRNK	-0.969
HMATYNEVLKRLIEERKRLGLSQQEMARLVHITQSNYSKVEKGLHRLSYEELKYLSKANVDIFYILT	0.136
HMEDLDKIISAYLDENPQIVSDYGKGNKKAVNSAIGFVMKSTGGKYSSSDIVDAVRSMIVSISV	-0.482
HMSNGFFELKTSQQDELIDLIDSHTNFVRTKIEGELITAFLKLPMDAEEFNKLLFTNGIILSHLVKRK	-0.461
HMNPDDEMLLTYLTKLLVDKQFIVNSNDIFEYILRRVDRTYDGIYDIVSKLDVLSLEKKRQLTIPLIKEI	0.0226
HMGAVQFAEQKIHIGSRWIGKKISEFSAESDAFVILIKRGSEVVIPRGPTDIVENDVLVIHVPD	-2.56
HMQISDSGELEKIVLQVIEENPKPAEQVRSGNEKAIGALVGGVMKATQGRADGGEVNRLLRQHLGL	0.172
HMPRIYSITINPEKIRTVIGPGGKVIKDITAKTGTKIEIDDSGKVDIFSPDEEHARMAVEIINTLTEE	0.14
HMSSEITYDKFIEMVEEGNVKEVTLQSDTLTIKPKHQDSAFSEKEYYTRQMESADQLTERLEGTGIEFHS	0.104
HMKRQATLQIGSKRFGMDDLYFKFTVPFEDSEKLGTATIEAYNLSPATRNSIKKGMPIILNAGYEGDI	-0.225
HMLVATFGPTTGWEGREIIWDVDRFILVGHGAVPAAGVLDYDRRGQLIWAQPELRAWVVEVDRWETG	-1.97
HMAPVLTRREHEVLHLLTDGLDNRTIARNLFISEATVKFHLHNIMGKFGVHRRAALVSTALRG	-2.21
HMNPKTELMVYLKKRDEWVASQILSDVLQVSTRTIRKFVKEINMDYQTENVILSSSKGYKLNQNLLSSL	-1.2
HMFLPETEVKSFFHRGITKISPSLAMDIADFFRMPFAVILKRALALEVISDEQYRSFMTVKPEHV	-0.014
HMTPSTVQVHVAGAVKNPGVYVLLENARNIDAITAAGGATSEADLERINLSEFIRDGQRVYVPYKGDPI	0.269

Reference: the domain aggregation screens of Martell et al. (2025)
